# Where a chain is given by its changes, count along the chain named.
# T1: human BCMA expressed on cells (human, UniProt Q02223 1-184)
# T1 construct: whole, on cells; also called human BCMA HEK293; ARH77-hBCMA 10B5 BCMA expressing transfectant cells
# T1 sequence (looked up): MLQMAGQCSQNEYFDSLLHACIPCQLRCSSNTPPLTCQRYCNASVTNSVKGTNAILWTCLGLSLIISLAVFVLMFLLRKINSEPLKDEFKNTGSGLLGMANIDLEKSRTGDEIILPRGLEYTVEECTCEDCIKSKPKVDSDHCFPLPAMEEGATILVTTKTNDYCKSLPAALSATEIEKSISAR
# T2: recombinant human BCMA, commercial (US Biological, B0410) (human, UniProt Q02223 5-54, limits assumed)
# T2 construct: also called commercial human BCMA; Human commercial BCMA
# T2 chain (looked up): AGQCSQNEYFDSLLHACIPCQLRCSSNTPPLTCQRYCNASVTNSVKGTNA
# B1: murine S332121F02 (antibody, V domains shown)
# VH: EVQLQQSGPVLVKPGASVKMSCEASGYTFTDYYMNWVKQSHGKTLEWIGVINPYNGGTDYNQKFKGKATLTVDKSSSTAYMELNSLTSEDSAVYYCARSVYDYPFDYWGQGTLVTVSS
# VL: DIVLTQSPASLAVSLGQRATISCRASESVSIHGTHLMHWYQQKPGQPPKLLIYAASNLESGVPARFSGSGSETDFTLNIHPVEEEDAATYFCQQSIEDPRTFGGGTKLEIK
# notes: Murine hybridoma antibody
# B2: S332121F02 chimeric antibody (antibody, human IgG1, kappa, V domains shown)
# VH: B1 VH
# VL: DIVLTQSPASLAVSLGQRATISCRASESVSIHGTHLMHWYQQKPGQPPKLLIYAASNLESGVPARFSGSGSETDFTLNIHPVEEEDAATYFCQQSIEDPRTFGGGTKLEIKR
# notes: Section 4.10 says that the samples are new chimeric constructs (human IgG1 kappa)
# B3: S307118G03 Chimera (antibody, human IgG1, kappa, V domains shown)
# VH: EVQLQQSGPELVKPGASVKISCKASGYTFTDYYMKWVKQSHGKSLEWIGEIYPNNGGITYNQKFKGKATLTVDKSSSTAYMELRSLTSEDSAVYYCANGYEFVYWGQGTLVTVSA
# VL: DIQMTQTASSLSASLGDRVTISCSASQGISNYLNWYQQKPDGTVKLLIYYTSSLHSGVPSRFSGSGSGTDYSLTISNLEPEDIATYYCQQYSKLPWTFGGGTKLELKR
# notes: also called chimeric S307118G03
# B4: murine S322110D07 (antibody, V domains shown)
# VH: EVQLQQSGPELVKPGTSVKIPCKTSGYIFTDYSIDWVKQSHGKSLEWIGDIDPNYGDPIYNHKFKGKATLTVDRSSSTAYMELRSLTSEDTAVYFCARRATGTDWFAFWGQGTLVTVSS
# VL: DIQMTQSPASLSVSVGETVTITCRASENIYNNLAWYQQKQGKSPQLLVYAATILADGVPSRFSGSGSGTQYSLKINSLQSGDFGTYYCQHFWGTPLTFGAGTKLELKR
# notes: Murine hybridoma antibody; also called S3222110D07; S3322110D07
# B5: S322110D07 chimeric antibody (printed S332110D07 in Table 12) (antibody, human IgG1, kappa, V domains shown)
# VH: B4 VH
# VL: B4 VL
# notes: Section 4.10 says that the samples are new chimeric constructs (human IgG1 kappa); also called chimeric S322110D07
# B6: J6M0 potelligent antibody (afucosylated humanised CA8 J6M0) (antibody, human IgG1, kappa, V domains shown)
# VH: QVQLVQSGAEVKKPGSSVKVSCKASGGTFSNYWMHWVRQAPGQGLEWMGATYRGHSDTYYNQKFKGRVTITADKSTSTAYMELSSLRSEDTAVYYCARGAIYDGYDVLDNWGQGTLVTVSS
# VL: DIQMTQSPSSLSASVGDRVTITCSASQDISNYLNWYQQKPGKAPKLLIYYTSNLHSGVPSRFSGSGSGTDFTLTISSLQPEDFATYYCQQYRKLPWTFGQGTKLEIKR
# modifications: afucosylated (Potelligent) Fc glycan
# notes: human IgG1 kappa; also called J6M0 potelligent version; CA8 J6M0 Potelligent
# B7: CA8 humanised J6M1 (antibody, human IgG1, kappa, V domains shown)
# VH: B6 VH
# VL: B6 VL with F71Y
# notes: Humanised CA8, heavy chain J6 with light chain M1, human IgG1 kappa; also called CA8 J6M1
# B8: CA8 humanised J6M0 (antibody, human IgG1, kappa, V domains shown)
# VH: B6 VH
# VL: B6 VL
# notes: Humanised CA8, heavy chain J6 with light chain M0, human IgG1 kappa; also called CA8 J6M0; humanised J6M0 (wild type)
# B9: CA8 humanised J9M0 (antibody, human IgG1, kappa, V domains shown)
# VH: B6 VH with A24G, G27Y, S30T, M48I, V68A, I70L, K74T, A97T
# VL: B6 VL
# notes: Humanised CA8, heavy chain J9 with light chain M0, human IgG1 kappa; also called CA8 J9M0
# B10: CA8 humanised J6M2 (antibody, human IgG1, kappa, V domains shown)
# VH: B6 VH
# VL: B6 VL with M4L, K45E, L47V, F71Y
# notes: Humanised CA8, heavy chain J6 with light chain M2, human IgG1 kappa; also called CA8 J6M2
# Assays:
# [1] = molecular target: T1, human BCMA expressed on cells; assay: FACS on H929 multiple myeloma cells, antibody 5 µg/mL, PE anti-mouse IgG
# Method: Cells were incubated for 20 mins at room temperature (RT) and then washed with FACS buffer (PBS+0.5% BSA+0.1% sodium azide) to remove unbound antibody. Cells were incubated with a secondary PE labelled anti-mouse IgG antibody for 15 minutes at RT and then washed with FACS buffer to remove unbound antibody. Cells were analysed by FACS to detect antibody bound to the cells.
# [2] = molecular target: T3, recombinant human BCMA, in house material (human, UniProt Q02223 4-53, limits assumed); assay: ProteOn SPR, antibody captured on Protein A, 25C
# T3 construct: also called Human in house BCMA; In house human BCMA
# Method: The initial screen of the new chimeric variants from the second batch of hybridomas was carried out on the ProteOn XPR36 (Biorad). The method was as follows; Protein A was immobilised on a GLM chip (Biorad, Cat No: 176-5012) by primary amine coupling, anti-BCMA variants were then captured on this surface and recombinant human BCMA (in house material) passed over at 256, 64, 16, 4, 1 nM with a 0 nM injection (i.e. buffer alone) used to double reference the binding curves, the buffer used is the HBS-EP buffer. Regeneration of the capture surface was carried out using 50 mM NaOH. The data was fitted to the 1:1 model using the analysis software inherent to the ProteOn XPR36. The run was carried out at 25° C.
# [3] = molecular target: T2, recombinant human BCMA, commercial (US …); assay: ProteOn SPR run 2, antibody captured on Protein A, 25C
# [4] = molecular target: T4, recombinant cyno BCMA, in house material (cyno, UniProt A0A2K5UD97 4-52); assay: as above
# T4 construct: also called Cyno in house BCMA
# [5] = molecular target: T3, recombinant human BCMA, in house …; assay: ProteOn SPR run 2, antibody captured on Protein A, 25C; Run 2 (Table 9)
# Method: (§1) The initial screen of CA8 chimeric and humanised variants was carried out on the ProteOn XPR36 (Biorad). The method was as follows; Protein A was immobilised on a GLC chip (Biorad, Cat No: 176-5011) by primary amine coupling, CA8 variants were then captured on this surface and recombinant human BCMA (in house or commercial US Biological, B0410) materials (run 2 only)) passed over at 256, 64, 16, 4, 1 nM with a 0 nM injection (i.e. buffer alone) used to double reference the binding curves, the buffer used is the HBS-EP buffer. 50 mM NaOH was used to regenerate the capture surface. The data was fitted to the 1:1 model using the analysis software inherent to the ProteOn XPR36. […] Both runs were carried out at 25° C.
# [6] = molecular target: T3, recombinant human BCMA, in house …; assay: ProteOn SPR run 1, antibody captured on Protein A, 25C; Run 1 (Table 8)
# Method: as §1
# [7] = molecular target: T5, recombinant human BCMA Fc 4-53 (human); assay: ELISA, neutralisation of ligand binding to plate-coated BCMA Fc 4-53; competitor BAFF; competitor BAFF
# T5 construct: also called Human BCMA CD33-hBCMA ECD (4-53) TEV-Fc; recombinant BCMA
# Method: (§2) 96 well flat bottomed plates were coated overnight with 1 μg/mL solution of recombinant human BCMA Fc 4-53 in PBS. Following a wash step using 0.05% TWEEN20, plates were blocked with 2% Bovine Serum Albumin solution in PBS for 1 hour at room temperature. […] 40 μL of 2% BSA was added to the relevant control wells. […] Equivalent volume of 2% BSA was added to the relevant control wells. Plates were allowed to incubate for 2 hours at room temperature, after which they were washed as before. […] Following a wash step, 50 µL of a 1:4000 dilution of Streptavidin-HRP (Amersham RPN4401) was added to each well and incubated for 30 minutes at room temperature. The wash process was repeated again followed by the addition of […] of Tetramethylbenzidine substrate solution (T8665, Sigma) into each well. Plates were incubated for 20-25 minutes at room temperature, wrapped in foil. The reaction was stopped with the addition of […] of 1M H₂SO₄. Optical density was determined at 450 nm using Spectromax reader.
# [8] = molecular target: T5, recombinant human BCMA Fc 4-53; assay: competition ELISA: binding of recombinant human BAFF to coated recombinant human BCMA Fc 4-53, biotinylated anti-BAFF and streptavidin-HRP, % of control
# Method: as §2
# [9] = molecular target: T5, recombinant human BCMA Fc 4-53; assay: ELISA, neutralisation of ligand binding to plate-coated BCMA Fc 4-53; competitor APRIL; competitor APRIL
# Method: as §2
# [10] = molecular target: T1, human BCMA expressed on cells; assay: cell-based or functional assay
# [11] = molecular target: T5, recombinant human BCMA Fc 4-53; assay: competition ELISA: binding of recombinant human APRIL to coated recombinant human BCMA Fc 4-53, biotinylated anti-APRIL and streptavidin-HRP, % of control
# Method: as §2
# [12] = molecular target: T1, human BCMA expressed on cells; assay: FACS on ARH77-hBCMA 10B5 transfectant cells, PE anti-human IgG, MFI
# Method: Cells were then washed with FACS buffer (PBS+0.5% BSA+0.1% sodium azide) to remove unbound antibody. Cells were incubated with a secondary PE labelled anti-human IgG antibody for 15 minutes at RT and then washed with FACS buffer to remove unbound antibody. Cells were analysed by FACS and mean fluorescence intensity (MFI) values measured to determine binding.
# [13] = molecular target: T2, recombinant human BCMA, commercial (US …); assay: Biacore T100, antibody captured on Protein A, 37C, experiment 1
# Method: (§3) Protein A was immobilised on a CMS chip (GE Healthcare, Cat No: BR-1005-30) by primary amine coupling and this surface was then used to capture the antibody molecules. Recombinant human BCMA (US Biological, B0410) was used as analyte at 256 nM, 64 nM, 16 nM, 4 nM and 1 nM. Regeneration of the capture surface was carried out using 50 mM NaOH. All binding curves were double referenced with a buffer injection (i.e. 0 nM) the data was fitted to the using the 1:1 model inherent to T100 evaluation software. The run was carried out at 25° C. and 37° C. for experiment 1 and only 37° C. for experiment 2 using HBS-EP as the running buffer.
# [14] = molecular target: T2, recombinant human BCMA, commercial (US …); assay: Biacore T100, antibody captured on Protein A, 37C, experiment 2
# Method: as §3
# [15] = molecular target: T2, recombinant human BCMA, commercial (US …); assay: Biacore T100, antibody captured on Protein A, 25C, experiment 1
# Method: as §3
# [16] = molecular target: T2, recombinant human BCMA, commercial (US …); assay: Biacore T100, antibody captured on Protein A, 37C
# [17] = molecular target: T4, recombinant cyno BCMA, in house material; assay: Biacore T100, antibody captured on Protein A, 37C
binder,measurement,setting,value
B1,binding result,[1],binds
B2,Kd,[2],17.3 nM
B3,Kd,[3],0.956 nM
same,binding result,[4],no binding
same,Kd,[5],3.44 nM
same,Kd,[6],4.11 nM
B4,binding result,[1],binds
B5,Kd,[2],12.1 nM
B6,EC50,[7],0.748 µg/mL
same,IC50 (read off the curve),[8],~0.7 µg/mL
same,EC50,[9],0.616 µg/mL
same,IC50 for inhibition of APRIL signalling (phosphorylated NFkappaB in washed H-929 cells),[10],2.43 µg/mL
same,IC50 for inhibition of BAFF signalling (phosphorylated NFkappaB in washed H-929 cells),[10],0.91 µg/mL
same,IC50 (read off the curve),[11],~0.6 µg/mL
B7,Kd,[3],0.063 nM
same,Kd,[4],5.3 nM
same,Kd,[5],0.124 nM
same,binding result,[12],binds
B8,Kd,[13],0.698 nM
same,Kd,[14],0.498 nM
same,Kd,[3],0.086 nM
same,Kd,[4],5.63 nM
same,EC50,[7],0.776 µg/mL
same,IC50 (read off the curve),[8],~0.7 µg/mL
same,EC50,[9],0.63 µg/mL
same,Kd,[15],0.121 nM
same,Kd,[5],0.308 nM
same,IC50 (read off the curve),[11],~0.6 µg/mL
same,binding result,[12],binds
B9,Kd,[16],0.035 nM
same,Kd,[17],0.46 nM
same,Kd,[13],0.042 nM
same,Kd,[14],0.052 nM
same,Kd,[15],0.021 nM
same,binding result,[12],binds
B10,Kd,[3],0.071 nM
same,Kd,[4],6.86 nM
same,Kd,[5],0.202 nM
same,binding result,[12],binds
